Experimental data as given in paper PMC2864300, “Regulation of NOXO1 Activity through Reversible Interactions with p22^phox and NOXA1” (PLoS ONE, 2010).

B1: mouse p22^phox cytoplasmic domain (p22^phoxC) (domain or fragment, UniProt Q61462 127-192, looked up)
chain: RGEQWTPIEPKPKERPQVGGTIKQPPTNPPPRPPAEVRKKPSEGEEEAASAGGPQVNPMPVTDEVV
notes: mouse p22phox, cytoplasmic domain; also called murine p22^phox; source: E. coli BL21 STAR, purified (glutathione Sepharose, PreScission cleavage, Superdex 75)
B2: human NOXO1 SH3AB–E (tandem SH3 domains plus the C-terminal portion of NOXO1) (domain or fragment)
chain: LEAQSLRCLQPFCTQDTRDRPFQAQAQESLDVLLRHPSGWWLVENEDRQTAWFPAPYLEEAAPGQGREGGPSLGSSGPQFCASRAYESSRADELSVPAGARVRVLETSDRGWWLCRYGDRAGLLPAVLLRPEGLGALLSGTGFRGGDDPAGEARGFPEPSQATAPPPTVPTRPSPGAIQSRCCTVTRRALERRPRRQGRPRGCVDSVPHPTTEQ
B3: human NOXA1 SH3 domain (domain or fragment, UniProt Q86UR1 399-458, looked up)
chain: PVLYQVVAQHSYSAQGPEDLGFRQGDTVDVLCEVDQAWLEGHCDGRIGIFPKCFVVPAGP
notes: human NOXA1, carboxy-terminal SH3 domain; source: E. coli BL21 STAR, purified (glutathione Sepharose, PreScission cleavage, Superdex 75)
B4: peptideA (amino acids 319–347 of human NOXO1) (peptide)
peptide: TAPPPTVPTRPSPGAIQSRCCTVTRRALE
notes: also called long version of peptideA; source: synthetic peptide
B5: shorter version of peptideA, which only contains the proline rich region (peptide)
peptide: TAPPPTVPTRPS
notes: also called PeptideA-short; short proline-rich motif-containing version of peptideA; source: synthetic peptide
B6: mouse NOXA1 SH3 domain (domain or fragment, UniProt Q8CJ00 369-428, looked up)
chain: PVLYQVVAQYNYRAQRPEDLDFHQGDTVDVLCEVDEAWLEGHRDGCVGIFPKCFVVPAGA
notes: mouse NOXA1, carboxy-terminal SH3 domain; source: E. coli BL21 STAR, purified (glutathione Sepharose, PreScission cleavage, Superdex 75)

Assays:
Assay in all cases: ITC; MicroCal VP-ITC, 18°C; 150 mM NaCl, 1 mM DTT, 50 mM HEPES pH 7.4; typically 20–40 µM protein in the cell, 200–300 µM ligand injected; single-site binding model; averaged over three to five experiments
Conditions in all cases: both partners purified
[1] = molecular target: T1, mouse NOXO1 SH3AB–E (tandem SH3 domains plus the C-terminal portion of NOXO1) (mouse, UniProt Q8VCM2 160-349)
T1 construct: mouse NOXO1, tandem SH3 domains plus the C-terminal portion; source: E. coli BL21 STAR, purified (glutathione Sepharose, PreScission cleavage, Superdex 75)
T1 sequence (looked up): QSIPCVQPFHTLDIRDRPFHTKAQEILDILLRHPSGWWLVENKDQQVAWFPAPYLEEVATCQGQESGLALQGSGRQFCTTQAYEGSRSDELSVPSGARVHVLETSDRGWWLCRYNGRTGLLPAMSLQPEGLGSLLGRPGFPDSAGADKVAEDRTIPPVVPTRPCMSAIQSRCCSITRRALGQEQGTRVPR

human NOXA1 SH3 domain = molecular target: B3
[2] = molecular target: T2, human p22^phox cytoplasmic domain (p22^phoxC) (human)
T2 construct: human p22phox, cytoplasmic domain; source: E. coli BL21 STAR, purified (glutathione Sepharose, PreScission cleavage, Superdex 75)
T2 sequence (P13498 whole entry, looked up): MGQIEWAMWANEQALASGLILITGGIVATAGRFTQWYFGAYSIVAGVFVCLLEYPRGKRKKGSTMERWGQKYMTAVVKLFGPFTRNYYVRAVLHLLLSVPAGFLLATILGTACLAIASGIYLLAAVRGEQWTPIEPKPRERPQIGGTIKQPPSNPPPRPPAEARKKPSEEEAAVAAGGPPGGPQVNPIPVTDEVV

[3] = molecular target: B2
mouse NOXA1 SH3 domain = molecular target: B6
[4] = molecular target: T1, mouse NOXO1 SH3AB–E (tandem SH3 domains …); remark: listed apart in the source

## B1
[1]
  Kd: 0.78 µM
  dH: -7.1 ± 0.05 kcal/mol

## B2
Human NOXA1 SH3 domain
  Kd: 7.2 µM
[2]
  Kd: 17.5 µM

## B3
[3]
  dH: -8.6 ± 0.7 kcal/mol

## B4
Mouse NOXA1 SH3 domain
  Kd: 5.9 µM
  dH: -7.6 ± 0.3 kcal/mol
Human NOXA1 SH3 domain
  Kd: 5.8 µM
  dH: -12.6 ± 0.6 kcal/mol

## B5
Human NOXA1 SH3 domain
  Kd: > 70 µM

## B6
[4]
  Kd: 2.2 µM
  dH: -10.1 ± 0.8 kcal/mol
